What was measured:
[1] = test system: Fer (mouse); test: phosphorylation enrichment, bacterial display (enrichment ratio); higher = better substrate or ligand; peptides without Tyr show the background
[2] = test system: AncSZ; test: as above
[3] = target: EPHB1 (UniProt P54762); test: as above
[4] = target: FGFR1 (UniProt P11362); test: as above
[5] = target: MERTK (UniProt Q12866); test: as above
[6] = target: Fyn (UniProt P06241); test: as above
[7] = test system: c-Src; test: as above
[8] = target: EPHB2 (UniProt P29323); test: as above
[9] = target: Fes (UniProt P07332); test: as above
[10] = target: Jak2 (UniProt O60674); test: as above
[11] = target: Hck (UniProt P08631); test: as above
[12] = target: FGFR3 (UniProt P22607); test: as above
[13] = test system: c-Abl (mouse); test: as above
[14] = target: c-Src SH2; test: SH2 binding enrichment of the phosphorylated peptide, bacterial display (enrichment ratio); higher = better substrate or ligand; peptides without Tyr show the background
[15] = target: Grb2 SH2 (UniProt P62993); test: as above
[16] = target: SHP2-C SH2; test: as above
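Throughout, for SH2 binding enrichment of the phosphorylated peptide, bacterial display: peptide library displayed on the E. coli surface as eCPX fusions, selected cells deep-sequenced, score is each peptide's frequency after selection divided by its frequency in the input.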
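Throughout, for phosphorylation enrichment, bacterial display: 11-residue human phosphosite peptides and single-mutation variants displayed on the E. coli surface, counted by deep sequencing, each peptide's frequency after selection divided by its frequency in the unselected input library; frequency after pTyr selection over input frequency; kinase dosed for 20-30% of maximal phosphorylation in three min.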

Sequence of Grb2 SH2 (P62993 whole entry, looked up): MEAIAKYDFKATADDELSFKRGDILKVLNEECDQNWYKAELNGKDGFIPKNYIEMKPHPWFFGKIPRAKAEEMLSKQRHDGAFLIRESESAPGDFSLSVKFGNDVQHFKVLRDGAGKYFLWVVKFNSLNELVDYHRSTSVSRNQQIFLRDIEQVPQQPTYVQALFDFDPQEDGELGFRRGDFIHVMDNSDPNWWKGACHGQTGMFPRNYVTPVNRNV
Sequence of EPHB2 (P29323 whole entry, looked up): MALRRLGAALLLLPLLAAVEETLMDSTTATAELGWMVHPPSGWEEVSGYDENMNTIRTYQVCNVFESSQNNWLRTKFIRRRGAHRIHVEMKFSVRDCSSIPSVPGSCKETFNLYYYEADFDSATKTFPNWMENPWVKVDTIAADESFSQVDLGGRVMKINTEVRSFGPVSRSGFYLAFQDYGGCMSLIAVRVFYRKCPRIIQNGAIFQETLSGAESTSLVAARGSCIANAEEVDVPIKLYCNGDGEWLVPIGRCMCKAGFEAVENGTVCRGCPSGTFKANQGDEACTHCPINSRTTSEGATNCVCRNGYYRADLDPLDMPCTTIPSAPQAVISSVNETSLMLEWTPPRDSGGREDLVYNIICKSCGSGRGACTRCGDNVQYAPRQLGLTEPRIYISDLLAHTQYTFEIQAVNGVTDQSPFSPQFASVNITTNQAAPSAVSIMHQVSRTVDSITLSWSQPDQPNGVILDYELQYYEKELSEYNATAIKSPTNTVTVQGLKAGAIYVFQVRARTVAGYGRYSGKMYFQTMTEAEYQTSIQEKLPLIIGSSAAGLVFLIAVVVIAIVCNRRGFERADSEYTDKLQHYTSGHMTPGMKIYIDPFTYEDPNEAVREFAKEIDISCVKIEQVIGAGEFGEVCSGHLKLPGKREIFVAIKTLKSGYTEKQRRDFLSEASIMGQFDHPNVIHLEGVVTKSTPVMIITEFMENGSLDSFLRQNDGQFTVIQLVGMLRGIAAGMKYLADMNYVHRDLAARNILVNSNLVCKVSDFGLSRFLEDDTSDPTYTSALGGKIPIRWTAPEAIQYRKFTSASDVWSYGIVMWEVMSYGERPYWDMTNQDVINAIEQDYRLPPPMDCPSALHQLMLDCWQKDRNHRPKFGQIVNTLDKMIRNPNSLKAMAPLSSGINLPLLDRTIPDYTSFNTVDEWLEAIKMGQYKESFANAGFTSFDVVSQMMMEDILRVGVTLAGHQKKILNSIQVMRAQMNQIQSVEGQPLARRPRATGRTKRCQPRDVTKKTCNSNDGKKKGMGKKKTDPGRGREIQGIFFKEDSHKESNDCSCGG
Sequence of Jak2 (O60674 whole entry, looked up): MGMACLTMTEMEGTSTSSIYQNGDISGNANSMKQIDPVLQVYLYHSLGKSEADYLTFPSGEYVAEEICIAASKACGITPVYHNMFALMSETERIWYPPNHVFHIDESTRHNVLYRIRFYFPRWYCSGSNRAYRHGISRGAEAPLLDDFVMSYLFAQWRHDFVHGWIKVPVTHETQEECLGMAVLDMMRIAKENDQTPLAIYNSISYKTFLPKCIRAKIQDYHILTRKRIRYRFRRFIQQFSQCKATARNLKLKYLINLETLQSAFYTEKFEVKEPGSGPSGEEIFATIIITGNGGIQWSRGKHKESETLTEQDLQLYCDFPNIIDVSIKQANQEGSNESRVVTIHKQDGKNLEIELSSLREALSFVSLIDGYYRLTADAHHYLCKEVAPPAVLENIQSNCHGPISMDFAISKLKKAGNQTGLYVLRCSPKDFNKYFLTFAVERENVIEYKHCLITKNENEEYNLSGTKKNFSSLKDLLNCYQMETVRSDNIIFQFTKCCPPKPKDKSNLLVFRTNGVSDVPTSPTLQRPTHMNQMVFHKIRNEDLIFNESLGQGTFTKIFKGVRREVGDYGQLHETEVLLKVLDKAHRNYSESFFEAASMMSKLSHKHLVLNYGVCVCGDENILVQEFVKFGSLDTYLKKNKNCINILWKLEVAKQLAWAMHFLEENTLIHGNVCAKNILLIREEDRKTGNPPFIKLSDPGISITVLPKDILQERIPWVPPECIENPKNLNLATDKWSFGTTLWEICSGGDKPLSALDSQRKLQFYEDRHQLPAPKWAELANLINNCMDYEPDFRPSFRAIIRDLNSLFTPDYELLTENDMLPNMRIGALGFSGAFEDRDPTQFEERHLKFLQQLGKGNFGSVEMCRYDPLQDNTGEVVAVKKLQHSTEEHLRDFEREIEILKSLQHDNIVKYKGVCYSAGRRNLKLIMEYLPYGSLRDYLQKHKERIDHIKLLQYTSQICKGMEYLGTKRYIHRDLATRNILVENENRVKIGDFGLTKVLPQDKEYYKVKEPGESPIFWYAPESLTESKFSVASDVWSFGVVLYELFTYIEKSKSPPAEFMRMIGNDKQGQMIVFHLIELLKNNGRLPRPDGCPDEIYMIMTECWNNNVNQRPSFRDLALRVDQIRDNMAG
Sequence of Hck (P08631 whole entry, looked up): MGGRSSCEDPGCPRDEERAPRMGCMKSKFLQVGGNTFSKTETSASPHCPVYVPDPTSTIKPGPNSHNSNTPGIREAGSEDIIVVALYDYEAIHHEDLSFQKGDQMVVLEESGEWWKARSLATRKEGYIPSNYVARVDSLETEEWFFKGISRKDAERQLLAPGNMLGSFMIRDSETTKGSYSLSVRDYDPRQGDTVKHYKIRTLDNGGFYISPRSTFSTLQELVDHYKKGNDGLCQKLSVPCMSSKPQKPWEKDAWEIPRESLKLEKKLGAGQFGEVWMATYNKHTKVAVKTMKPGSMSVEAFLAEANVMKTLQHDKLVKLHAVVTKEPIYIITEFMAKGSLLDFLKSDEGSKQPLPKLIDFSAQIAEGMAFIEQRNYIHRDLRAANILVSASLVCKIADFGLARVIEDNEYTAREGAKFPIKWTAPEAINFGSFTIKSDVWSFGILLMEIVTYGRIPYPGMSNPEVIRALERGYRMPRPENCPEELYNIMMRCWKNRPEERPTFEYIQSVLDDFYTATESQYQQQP
Sequence of FGFR1 (P11362 whole entry, looked up): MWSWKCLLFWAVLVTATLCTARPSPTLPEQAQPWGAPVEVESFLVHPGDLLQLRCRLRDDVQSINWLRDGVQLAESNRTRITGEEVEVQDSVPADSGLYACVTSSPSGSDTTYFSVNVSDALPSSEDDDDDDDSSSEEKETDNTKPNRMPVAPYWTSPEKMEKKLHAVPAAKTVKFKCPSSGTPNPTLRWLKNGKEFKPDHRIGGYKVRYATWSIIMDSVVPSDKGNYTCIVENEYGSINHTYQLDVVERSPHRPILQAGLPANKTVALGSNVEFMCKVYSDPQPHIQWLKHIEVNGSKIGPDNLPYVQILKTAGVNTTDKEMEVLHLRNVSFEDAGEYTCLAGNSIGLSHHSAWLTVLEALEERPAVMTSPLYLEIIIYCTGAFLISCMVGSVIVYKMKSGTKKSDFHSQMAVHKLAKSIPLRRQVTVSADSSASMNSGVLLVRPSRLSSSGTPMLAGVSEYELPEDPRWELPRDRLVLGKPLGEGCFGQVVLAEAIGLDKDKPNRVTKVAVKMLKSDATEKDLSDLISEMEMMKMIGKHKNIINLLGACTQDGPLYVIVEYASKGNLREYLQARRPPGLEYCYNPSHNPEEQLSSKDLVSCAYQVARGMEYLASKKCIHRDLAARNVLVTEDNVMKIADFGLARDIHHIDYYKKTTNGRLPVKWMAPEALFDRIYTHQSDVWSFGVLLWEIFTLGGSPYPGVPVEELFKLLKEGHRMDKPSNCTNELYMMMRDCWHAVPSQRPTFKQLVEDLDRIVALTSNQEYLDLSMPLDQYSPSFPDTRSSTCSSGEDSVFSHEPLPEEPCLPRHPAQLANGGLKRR
Sequence of Fyn (P06241 whole entry, looked up): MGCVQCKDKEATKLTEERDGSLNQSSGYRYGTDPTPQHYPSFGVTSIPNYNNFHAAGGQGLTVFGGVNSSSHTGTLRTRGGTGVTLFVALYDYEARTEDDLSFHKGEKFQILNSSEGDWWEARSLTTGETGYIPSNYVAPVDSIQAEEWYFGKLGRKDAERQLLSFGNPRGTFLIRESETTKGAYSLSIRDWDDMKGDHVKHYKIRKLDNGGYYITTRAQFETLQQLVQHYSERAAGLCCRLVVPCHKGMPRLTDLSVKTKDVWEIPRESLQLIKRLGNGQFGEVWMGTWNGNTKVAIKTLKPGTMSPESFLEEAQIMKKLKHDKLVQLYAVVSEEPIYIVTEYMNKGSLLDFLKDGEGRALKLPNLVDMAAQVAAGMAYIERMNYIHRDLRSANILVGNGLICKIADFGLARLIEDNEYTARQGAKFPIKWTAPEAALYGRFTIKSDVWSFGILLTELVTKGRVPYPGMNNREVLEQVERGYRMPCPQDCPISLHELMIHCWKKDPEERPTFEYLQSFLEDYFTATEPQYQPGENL

Row | Sequence | phosphorylation enrichment [1] | phosphorylation enrichment [2] | phosphorylation enrichment [3] | phosphorylation enrichment [4] | phosphorylation enrichment [5] | phosphorylation enrichment [6] | phosphorylation enrichment [7] | phosphorylation enrichment [8] | phosphorylation enrichment [9] | phosphorylation enrichment [10] | phosphorylation enrichment [11] | phosphorylation enrichment [12] | phosphorylation enrichment [13] | SH2 binding enrichment [14] | SH2 binding enrichment [15] | SH2 binding enrichment [16]
1 | LYSNAYLSDLA [ALDH1A1_Y119_N121S] | 7.25 | 1.68 | 2.99 | 1.14 | 8.43 | 3.58 | 1.96 | 1.45 | 1.01 | 0.945 | 3.5 | 1.23 | 0.618 | 1.11 | 0.94 | 0.782
2 | PADQAYSWFQH [NDST1_Y711_R709Q_YF] | 26.6 | 1.7 | 1.3 | 5.17 | 7.11 | 1.38 | 2.41 | 0.926 | 2.91 | 0.855 | 1.36 | 4.33 | 0.58 | 0.891 | 0.648 | 1.01
3 | RNFVHYVQGLK [VWF_Y1400_R1399H] | 0.349 | 0.875 | 0.511 | 0.429 | 0.544 | 0.613 | 0.583 | 0.515 | 0.833 | 0.605 | 0.369 | 0.52 | 0.669 | 0.7 | 1.14 | 1.96
4 | DGTGHYLGNAC [GATA5_Y208_C210G] | 0.4 | 0.624 | 0.471 | 0.421 | 0.357 | 0.347 | 0.311 | 0.456 | 0.727 | 0.548 | 0.399 | 0.474 | 0.554 | 0.492 | 0.966 | 0.561
5 | SDPIIYTLENV [ADGRE1_Y534_I539V] | 5.1 | 1.1 | 0.5 | 0.577 | 1.09 | 7 | 4.92 | 0.576 | 1.38 | 0.945 | 1.61 | 0.663 | 0.723 | 0.554 | 0.88 | 0.682
6 | VGTKWYMAPEV [ACVRL1_Y375_R374W] | 0.374 | 0.899 | 1.78 | 0.827 | 2.9 | 0.364 | 0.416 | 1.93 | 0.764 | 0.963 | 0.458 | 0.747 | 0.726 | 0.737 | 0.956 | 0.674
7 | CTTIHYYYMCN [TP53_Y234_N235Y] | 0.574 | 0.991 | 0.585 | 2.74 | 0.767 | 1.41 | 1.05 | 0.773 | 1.08 | 1.27 | 0.804 | 2.11 | 0.644 | 2.94 | 1.6 | 1.96
8 | PSNTEYPGPHS [TP63_Y171_D170E] | 0.498 | 0.806 | 0.774 | 0.56 | 0.383 | 0.507 | 0.41 | 0.671 | 0.832 | 0.568 | 0.477 | 0.497 | 0.696 | 0.373 | 1.48 | 0.362
9 | DFPGIYSGYDD [POLR1C_Y33_N32I] | 0.687 | 1.09 | 0.627 | 0.485 | 0.565 | 6.48 | 5.19 | 0.652 | 1.05 | 0.946 | 3.4 | 0.696 | 0.796 | 1.44 | 0.835 | 1
10 | PVDGEYFTLQI [TP53_Y327_L323V] | 1.31 | 4.07 | 1.16 | 11.4 | 0.623 | 4.09 | 3.58 | 1.36 | 1.86 | 3.14 | 2.38 | 9.07 | 1.38 | 0.512 | 0.785 | 0.744
11 | DKVFTYIFIME [SCN4A_Y1074] | 0.658 | 1.32 | 0.645 | 0.54 | 0.41 | 0.41 | 0.533 | 0.695 | 1.53 | 1.35 | 0.575 | 1.14 | 0.968 | 0.469 | 0.813 | 0.58
12 | EPNSRYTFKLE [USH2A_Y3745_YF] | 0.397 | 0.808 | 0.479 | 0.379 | 0.373 | 0.408 | 0.365 | 0.448 | 0.963 | 0.76 | 0.393 | 0.596 | 0.658 | 0.476 | 0.818 | 0.669
13 | NSIGNYYKPWF [DHCR24_Y299] | 0.52 | 1.14 | 14.5 | 5.3 | 8.27 | 0.568 | 0.69 | 15.2 | 0.774 | 9.63 | 1 | 4.33 | 14.1 | 1.09 | 1.14 | 2.39
14 | PHMQTYEVDLN [SDHB_Y61] | 1.02 | 1.17 | 0.978 | 0.61 | 0.51 | 0.906 | 1.04 | 0.797 | 1.29 | 1.12 | 0.804 | 0.755 | 0.649 | 0.874 | 1.01 | 0.716
15 | CTTSHYNYMCN [TP53_Y234_I232S] | 0.55 | 0.896 | 0.741 | 0.569 | 0.549 | 0.49 | 0.441 | 0.534 | 0.755 | 0.537 | 0.563 | 0.649 | 0.515 | 11 | 1.01 | 2.04

Source: the supplement of paper PMC10065799, “High-throughput profiling of sequence recognition by tyrosine kinases and SH2 domains using bacterial peptide display” (eLife, 2023)
